Experimental data taken from patent publication US20250051429A1 (Hoffmann-La Roche, published 2025).
Residue numbers refer to the chain shown, from its start. In names and notes the source's numbering stands.

B1: gantenerumab (antibody, human IgG1, V domains shown)
VH: QVELVESGGGLVQPGGSLRLSCAASGFTFSSYAMSWVRQAPGKGLEWVSAINASGTRTYYADSVKGRFTISRDNSKNTLYLQMNSLRAEDTAVYYCARGKGNTHKPYGYVRYFDVWGQGTLVTVSS
VL: DIVLTQSPATLSLSPGERATLSCRASQSVSSSYLAWYQQKPGQAPRLLIYGASSRATGVPARFSGSGSGTDFTLTISSLEPEDFATYYCLQIYNMPITFGQGTKVEIK
modifications: glycosylation site in heavy chain CDR2 (NAS); Fab glycosylation (CE-SDS) 30-80 %
notes: kappa light chain; also called parent antibody gantenerumab; wt: NAS
B2: mAb 675 (antibody, V domains shown)
VH: QVELVESGGGLVQPGGSLRLSCAASGFTFSSYAMSWVRQAPGKGLEWVSAINATGTRTYYADSVKGRFTISRDNSKNTLYLQMNSLRAEDTAVYYCARGKGSSGYVRYFDVWGQGTLVTVSS
VL: B1 VL
modifications: glycosylation site in heavy chain CDR2 (NAT); Fab glycosylation (CE-SDS) 100 %
notes: Variant of gantenerumab: heavy chain S53T (Kabat) and shortened heavy chain CDR3, wild-type light chain; Only variable domains are tied to the name; also called 142; gantenerumab VH NAT variant with wild-type light chain
B3: mAb 651 (antibody, V domains shown)
VH: B2 VH
VL: B1 VL with M95H
modifications: glycosylation site in heavy chain CDR2 (NAT); Fab glycosylation (CE-SDS) 100 %
notes: Variant of gantenerumab: heavy chain S53T, shortened heavy chain CDR3, light chain M95H (Kabat); also called 144
B4: mAb 638 (antibody, V domains shown)
VH: B2 VH with N52Q, T54S
VL: B1 VL with M95H
modifications: no Fab glycosylation (CE-SDS 0 %)
notes: Variant of gantenerumab: heavy chain N52Q, shortened heavy chain CDR3, light chain M95H (Kabat)
B5: mAb 663 (antibody, V domains shown)
VH: B2 VH with N52Q, T54S
VL: B1 VL
modifications: no Fab glycosylation (CE-SDS 0 %)
notes: Variant of gantenerumab: heavy chain N52Q (Kabat) and shortened heavy chain CDR3, wild-type light chain; also called 143; gantenerumab VH QAS variant with wild-type light chain

These binders were tested against T1, human A-beta protein, fibrillar A-beta(1-40) coated for the ELISA (human) (assay: ELISA, antibody on coated fibrillar A-beta(1-40)).
T1 construct: also called Aβ1-40 fibers; fibrillar Aβ
Method: Binding of the antibodies to fibrillar Aβ is measured by an ELISA assay. Briefly, AD(1-40) is coated at 7 μg/mL in PBS onto Maxisorb plates for 3 days at 37° C. to produce fibrillar Abeta, and then dried for 3 h at RT. The plate is blocked with 1% CroteinC and 0.1% RSA in PBS (blocking buffer) for 1 h at RT, then washed once with wash buffer. Antibodies or controls are added at concentrations up to 100 nM in blocking buffer and incubated at 4° C. overnight. After 4 wash steps, constructs are detected by addition of anti-human-IgG-HRP (Jackson Immunoresearch) at 1:10,000 dilution in blocking buffer […], followed by 6 washes and incubation in TMB (Sigma). Absorbance is read out at 450 nm after stopping color development with 1 N HCl.

T1 sequence (peptide, as listed by the source): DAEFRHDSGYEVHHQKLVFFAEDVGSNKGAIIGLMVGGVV

Row | EC50 [nM] | Binder
1 | 0.2 | B1
2 | 0.2 | B2
3 | 4 | B3
4 | 0.2 | B4
5 | 0.2 | B5
